Test results reported in US20160068835A1, “FLEXIBLE DISPLAY METHOD” (PEPTIDREAM INC., priority 2013, published 2016).
One block for each molecule: values may come before it. Where no end group is shown, it is not given here. [ ]: non-standard residue; d: D form. The star is where a group is joined. ClAB‑L‑Phe = N-[3-(2-chloroacetamido)benzoyl]-L-phenylalanine, O=C(CCl)Nc1cccc(C(=O)N[C@@H](Cc2ccccc2)C(=O)*)c1; puromycin = COc1ccc(C[C@H](N*)C(=O)N[C@H]2[C@@H](O)[C@H](n3cnc4c(N(C)C)ncnc43)O[C@@H]2CO)cc1; An21 Pu‑linker = not defined here

How the values were obtained:
[1] = molecular target: T1, human serum albumin (HSA) (Homo sapiens, UniProt P02768); test: Bonding assay of chemically synthesized peptides by Bio-Layer Interferometry (BLI method); format: binding; conditions: 50 mM Hepes-KOH pH 7.5, 300 mM NaCl, 0.05% Tween20, 0.001% DMSO, 30° C.; peptide 1-16 nM; FIG. 8
Description: (§1) Next, these peptides were chemically synthesized by Fmoc solid phase synthesis, and the bond to HSA was assessed using the Bio-Layer Interferometry method (BLI method). A bonding assay was performed under the condition of 50 mM Hepes-KOH pH 7.5, 300 mM NaCl, 0.05% Tween20 and 0.001% DMSO at 30° C. Each step of the assay consists of the bond reaction of peptide to HSA being 500 s, and the dissociation reaction being 500 s. The peptide solution was created by the following dilution series (p1: 16, 12, 8, 2, 1 nM, and p2: 16, 12, 8, 4 nM).

[2] = molecular target: T1, human serum albumin (HSA); test: Pull-down of peptides displayed as An21-type complexes with HSA-immobilized SA beads, recovered cDNA quantified by real-time PCR; format: binding; conditions: An21-type display complexes; HSA-immobilized SA beads vs SA beads free of HSA; FIG. 5e
Description: Derivative peptides having reverse and shuffled sequences of the selected peptides (p1 and p2) and the original peptide were prepared as the An21-type complexes. […] Furthermore, since the bonding activity to HSA is lost when the amino acid sequence of the obtained cyclic peptide is reconfigured (reversed or shuffled), it could be seen that the bond of peptide to HSA is sequence-dependent (FIG. 5e).
mRNAs of p1 and p2 were synthesized from the colony PCR product. The reverse or shuffled sequences of the mRNAs of the p1 and p2 peptides were prepared as follows. The DNA template was prepared using T7SD8M2.F44 as the forward primer, and SD8No38revG5S4.R69, SD8No38ranG5S4.R69, SD8No41revG5S4.R75 or SD8No41ranG5S4.R75 as the reverse primer. An elongation PCR and transcription were performed by a method similar to the method used in preparation of T7-mRNA. mRNA was purified by phenol/chloroform extraction and 2-propanole precipitation, and dissolved in ultrapure water.
Translation (2 μL), reverse transcription (4 μL), and the quenching reaction (5.25 μL) were performed by the above method.
2 μL of the obtained solution was mixed with HSA immobilized SA beads (0.3 pmol HSA) or SA-beads. After incubation at room temperature for 10 min., the beads were washed three times with 10 μL of HBST. […] The recovered cDNA was quantified with real-time PCR.

human serum albumin [3] = molecular target: T2, human serum albumin (human, UniProt P02768 25-609); test: pull-down of the An21-type display complex on HSA-immobilized SA beads, recovered cDNA quantified by real-time PCR
T2 construct: also called HSA
Description: Derivative peptides having reverse and shuffled sequences of the selected peptides (p1 and p2) and the original peptide were prepared as the An21-type complexes. The obtained complexes were subjected to pull-down using the HSA-immobilized SA beads and the SA beads free of HSA, and the recovered cDNA was quantified, which provided the result that p1 and p2 actually bond with HSA (FIG. 5e). Furthermore, since the bonding activity to HSA is lost when the amino acid sequence of the obtained cyclic peptide is reconfigured (reversed or shuffled), it could be seen that the bond of peptide to HSA is sequence-dependent (FIG. 5e).

human serum albumin [4] = molecular target: T2, human serum albumin; test: Bio-Layer Interferometry (BLI), synthetic peptide at 16, 12, 8, 2, 1 nM, 30 C
Description: as §1

human serum albumin [5] = molecular target: T2, human serum albumin; test: Bio-Layer Interferometry (BLI), synthetic peptide at 16, 12, 8, 4 nM, 30 C
Description: as §1

Molecule: XTYNERLFWC ([ClAB‑L‑Phe]TYNERLFWC; thioether (positions not given here); not fully specified (bridges)) [p1, X is ClAB-L-Phe, cyclized by thioether bond with Cys]
bond to HSA (BLI binding curve) [1]: bond to HSA
bond with HSA (recovered cDNA after pull-down) [2]: actually bond with HSA

Molecule: XSQWDPWAIFWC ([ClAB‑L‑Phe]SQWDPWAIFWC; thioether (positions not given here); not fully specified (bridges)) [p2, X is ClAB-L-Phe, cyclized by thioether bond with Cys]
bond to HSA (BLI binding curve) [1]: bond to HSA
bond with HSA (recovered cDNA after pull-down) [2]: actually bond with HSA

B3: p1: XTYNERLFWC (X is ClAB-L-Phe), chemically synthesized cyclic peptide (peptide)
peptide: [ClAB‑L‑Phe]TYNERLFWC
modifications: thioether (positions not given here); not fully specified (bridges)
notes: Made by Fmoc solid phase synthesis for the BLI assay; also called compound p1
binding result (human serum albumin [4]): binds

B4: p2: XSQWDPWAIFWC (X is ClAB-L-Phe), chemically synthesized cyclic peptide (peptide)
peptide: [ClAB‑L‑Phe]SQWDPWAIFWC
modifications: thioether (positions not given here); not fully specified (bridges)
notes: Made by Fmoc solid phase synthesis for the BLI assay; also called compound p2
binding result (human serum albumin [5]): binds

Next, values leading:

binding result (human serum albumin [3]): no binding
B1: Shuffled p2, displayed as An21-type complex (peptide)
peptide: [ClAB‑L‑Phe]DQSPWWWIAFCGGGGGS
modifications: thioether (positions not given here); not fully specified (C-terminus, bridges); also: C-terminal Pu-linker annealed to its mRNA/cDNA (display complex)
notes: also called No41ran

binding result (human serum albumin [3]): no binding
B2: Reversed p1, displayed as An21-type complex (peptide)
peptide: [ClAB‑L‑Phe]WFLRENYTCGGGGGS-{puromycin-An21 Pu‑linker}
modifications: thioether (positions not given here); not fully specified (bridges); reading uncertain; also: Pu-linker annealed to its mRNA/cDNA (display complex)
notes: also called No38rev

binding result (human serum albumin [3]): no binding
B5: Reversed p2, displayed as An21-type complex (peptide)
peptide: [ClAB‑L‑Phe]WFIAWPDWQSCGGGGGS
modifications: thioether (positions not given here); not fully specified (C-terminus, bridges); also: Pu-linker annealed to its mRNA/cDNA (display complex)
notes: also called No41rev

binding result (human serum albumin [3]): no binding
B6: Shuffled p1, displayed as An21-type complex (peptide)
peptide: [ClAB‑L‑Phe]RFETLNWYCGGGGGS-{puromycin-An21 Pu‑linker}
modifications: thioether (positions not given here); not fully specified (bridges); reading uncertain; also: C-terminal Pu-linker annealed to its mRNA/cDNA (display complex)
notes: also called No38ran
